Measurements taken from paper PMC2661964, “Mammalian Kinesin-3 Motors Are Dimeric In Vivo and Move by Processive Motility upon Release of Autoinhibition” (PLoS Biology, 2009).

B1: endogenous KIF1A in rat brain cytosol (natural protein, rat (endogenous in rat brain), UniProt F1M4A4 1-1707, looked up)
chain: MAGASVKVAVRVRPFNSREMSRDSKCIIQMSGSTTTIVNPKQPKETPKSFSFDYSYWSHTSPEDINYASQKQVYRDIGEEMLQHAFEGYNVCIFAYGQTGAGKSYTMMGKQEKDQQGIIPQLCEDLFSRINDTTNDNMSYSVEVSYMEIYCERVRDLLNPKNKGNLRVREHPLLGPYVEDLSKLAVTSYNDIQDLMDSGNKARTVAATNMNETSSRSHAVFNIIFTQKRHDAETNITTEKVSKISLVDLAGSERADSTGAKGTRLKEGANINKSLTTLGKVISALAEMDSGPNKNKKKKKTDFIPYRDSVLTWLLRENLGGNSRTAMVAALSPADINYDETLSTLRYADRAKQIRCNAIINEDPNNKLIRELKDEVTRLRDLLYAQGLGDITDTNTVPGGPKLTNALVGMSPSSSLSALSSRAASVSSLHERILFAPGSEEAIERLKETEKIIAELNETWEEKLRRTEAIRMEREALLAEMGVAMREDGGTLGVFSPKKTPHLVNLNEDPLMSECLLYYIKDGVTRVGREDAERRQDIVLSGHFIKEEHCIFRSDSRGGGEAVVTLEPCEGADTYVNGKKVTEPSILRSGNRIIMGKSHVFRFNHPEQARQERERTPCAETPAEPVDWAFAQRELLEKQGIDMKQEMEQRLQELEDQYRREREEATYLLEQQRLDYESKLEALQKQMDSRYYPEVNEEEEEPEDEVQWTERECELALWAFRKWKWYQFTSLRDLLWGNAIFLKEANAISVELKKKVQFQFVLLTDTLYSPLPPDLLPPEAAKDRETRPFPRTIVAVEVQDQKNGATHYWTLEKLRQRLDLMREMYDRAAEVPSSVVEDCDNVVTGGDPFYDRFPWFRLVGRAFVYLSNLLYPVPLVHRVAIVSEKGEVKGFLRVAVQAISADEEAPDYGSGVRQSGTAKISFDDQHFEKFQSESCPVVGMSRSGTSQEELRIVEGQGQGADAGPSADEVNNNTCSAVPPEGLLDSPEKAALDGPLDTALDHLRLGSTFTFRVTVLQASSISAEYADIFCQFNFIHRHDEAFSTEPLKNTGRGPPLGFYHVQNIAVEVTKSFIEYIKSQPIVFEVFGHYQQHPFPPLCKDVLSPLRPSRRHFPRVMPLSKPVPATKLSTMTRPSPGPCHCKYDLLVYFEICELEANGDYIPAVVDHRGGMPCMGTFLLHQGIQRRITVTLLHETGSHIRWKEVRELVVGRIRNTPETDEALIDPNILSLNILSSGYVHPAQDDRQFLDSDIPRTFYQFEAAWDSSMHNSLLLNRVTPYREKIYMTLSAYIEMENCTQPAVITKDFCMVFYSRDAKLPASRSIRNLFGSGSLRATEGNRVTGVYELSLCHVADAGSPGMQRRRRRVLDTSVAYVRGEENLAGWRPRSDSLILDHQWELEKLSLLQEVEKTRHYLLLREKLETTQRPVPEVLSPASSEDSESRSSSGASSPLSAEGQPSPLEVPNERQRELAVKCLRLLMHTFNREYTHSHVCISASESKLSEMSVTLMRDPSMSPLGAATLTPSSTCPSLIEGRYGATDVRTPQPCSRPASPEPELLPELDSKKTPSPVRATETEKEPQRLLVPDIQEIRVSPIVSKKGYLHFLEPHTAGWAKRFVVVRRPYAYMYNSDKDTVERFVLNLSTAQVEYSEDQQAMLKTPNTFAVCTEHRGILLQANSDKDMHDWLYAFNPLLAGTIRSKLSRRRSAQMRV
notes: KIF1A, endogenous protein of rat brain cytosol; source: endogenous, cytosolic extract of rat brain
B2: endogenous KIF1A in murine cortical neurons (natural protein, UniProt P33173 1-1695, looked up)
chain: MAGASVKVAVRVRPFNSREMSRDSKCIIQMSGSTTTIVNPKQPKETPKSFSFDYSYWSHTSPEDINYASQKQVYRDIGEEMLQHAFEGYNVCIFAYGQTGAGKSYTMMGKQEKDQQGIIPQLCEDLFSRINDTTNDNMSYSVEVSYMEIYCERVRDLLNPKNKGNLRVREHPLLGPYVEDLSKLAVTSYNDIQDLMDSGNKPRTVAATNMNETSSRSHAVFNIIFTQKRHDAETNITTEKVSKISLVDLAGSERADSTGAKGTRLKEGANINKSLTTLGKVISALAEMDSGPNKNKKKKKTDFIPYRDSVLTWLLRENLGGNSRTAMVAALSPADINYDETLSTLRYADRAKQIRCNAIINEDPNNKLIRELKDEVTRLRDLLYAQGLGDITDMTNALVGMSPSSSLSALSSRAASVSSLHERILFAPGSEEAIERLKETEKIIAELNETWEEKLRRTEAIRMEREALLAEMGVAMREDGGTLGVFSPKKTPHLVNLNEDPLMSECLLYYIKDGVTRVGREDAERRQDIVLSGHFIKEEHCIFRSDSRGGGEAVVTLEPCEGADTYVNGKKVTEPSILRSGNRIIMGKSHVFRFNHPEQARQERERTPCAETPAEPVDWAFAQRELLEKQGIDMKQEMEQRLQELEDQYRREREEATYLLEQQRLDYESKLEALQKQMDSRYYPEVNEEEEEPEDEVQWTERECELALWAFRKWKWYQFTSLRDLLWGNAIFLKEANAISVELKKKVQFQFVLLTDTLYSPLPPDLLPPEAAKDRETRPFPRTIVAVEVQDQKNGATHYWTLEKLRQRLDLMREMYDRAAEVPSSVVEDCDNVVTGGDPFYDRFPWFRLVGRAFVYLSNLLYPVPLVHRVAIVSEKGEVKGFLRVAVQAISADEEAPDYGSGVRQSGTAKISFDDQHFEKFQSESCPVVGMSRSGTSQEELRIVEGQGQGADAGPSADEVNNNTCSAVPPEGLMDSPEKAALDGPLDTALDHLRLGSTFTFRVTVLQASSISAEYADIFCQFNFIHRHDEAFSTEPLKNTGRGPPLGFYHVQNIAVEVTKSFIEYIKSQPIVFEVFGHYQQHPFPPLCKDVLSPLRPSRRHFPRVMPLSKPVPATKLSTMTRPSPGPCHCKYDLLVYFEICELEANGDYIPAVVDHRGACMGTFLLHQGIQRRITVTLLHETGSHIRWKEVRELVVGRIRNTPETDEALIDPNILSLNILSSGYVHPAQDDRVFFGNDTRTFYQFEAAWDSSMHNSLLLNRVTPYREKIYMTLSAYIEMENCTQPAVITKDFCMVFYSRDAKLPASRSIRNLFGSGSLRATEGNRVTGVYELSLCHVADAGSPGMQRRRRRVLDTSVAYVRGEENLAGWRPRSDSLILDHQWELEKLSLLQEVEKTRHYLLLREKLETTQRPGPEVLSPASSEDSESRSSSGASSPLSAEGQPSPLEAPNERQRELAVKCLRLLMHTFNREYTHSHVCISASESKLSEMSVTLMRDPSMSPLGAATLTPSSTCPSLIEGRYGATDVRTPQPCSRPASPEPELLPELDSKKTPSPVRATETEKEPQRLLVPDIQEIRVSPIVSKKGYLHFLEPHTAGWAKRFVVVRRPYAYMYNSDKDTVERFVLNLSTAQVEYSEDQQAMLKTPNTFAVCTEHRGILLQANSDKDMHDWLYAFNPLLAGTIRSKLSRRRSAQMRV
notes: KIF1A, endogenous protein of murine cortical neurons; source: endogenous, detergent extract of murine cortical neurons
B3: KIF1A(1–726)-3xmCit (domain or fragment, rat, UniProt F1M4A4 1-726, looked up)
chain: MAGASVKVAVRVRPFNSREMSRDSKCIIQMSGSTTTIVNPKQPKETPKSFSFDYSYWSHTSPEDINYASQKQVYRDIGEEMLQHAFEGYNVCIFAYGQTGAGKSYTMMGKQEKDQQGIIPQLCEDLFSRINDTTNDNMSYSVEVSYMEIYCERVRDLLNPKNKGNLRVREHPLLGPYVEDLSKLAVTSYNDIQDLMDSGNKARTVAATNMNETSSRSHAVFNIIFTQKRHDAETNITTEKVSKISLVDLAGSERADSTGAKGTRLKEGANINKSLTTLGKVISALAEMDSGPNKNKKKKKTDFIPYRDSVLTWLLRENLGGNSRTAMVAALSPADINYDETLSTLRYADRAKQIRCNAIINEDPNNKLIRELKDEVTRLRDLLYAQGLGDITDTNTVPGGPKLTNALVGMSPSSSLSALSSRAASVSSLHERILFAPGSEEAIERLKETEKIIAELNETWEEKLRRTEAIRMEREALLAEMGVAMREDGGTLGVFSPKKTPHLVNLNEDPLMSECLLYYIKDGVTRVGREDAERRQDIVLSGHFIKEEHCIFRSDSRGGGEAVVTLEPCEGADTYVNGKKVTEPSILRSGNRIIMGKSHVFRFNHPEQARQERERTPCAETPAEPVDWAFAQRELLEKQGIDMKQEMEQRLQELEDQYRREREEATYLLEQQRLDYESKLEALQKQMDSRYYPEVNEEEEEPEDEVQWTERECELALWAFRKWKWY
notes: source: COS cells, transfected, in lysate
B4: KIF1A(1–393)-3xmCit (domain or fragment, rat, UniProt F1M4A4 1-393, looked up)
chain: MAGASVKVAVRVRPFNSREMSRDSKCIIQMSGSTTTIVNPKQPKETPKSFSFDYSYWSHTSPEDINYASQKQVYRDIGEEMLQHAFEGYNVCIFAYGQTGAGKSYTMMGKQEKDQQGIIPQLCEDLFSRINDTTNDNMSYSVEVSYMEIYCERVRDLLNPKNKGNLRVREHPLLGPYVEDLSKLAVTSYNDIQDLMDSGNKARTVAATNMNETSSRSHAVFNIIFTQKRHDAETNITTEKVSKISLVDLAGSERADSTGAKGTRLKEGANINKSLTTLGKVISALAEMDSGPNKNKKKKKTDFIPYRDSVLTWLLRENLGGNSRTAMVAALSPADINYDETLSTLRYADRAKQIRCNAIINEDPNNKLIRELKDEVTRLRDLLYAQGLGDITD
notes: as for B3

Key:
mCit-KHC = assay: FRET or BRET; FRET stoichiometry (average FRET efficiency, E AVE) in live COS cells coexpressing mCit- and mCFP-tagged motors; Kinesin-1 with HA-KLC coexpressed
KHC(1–891)-3xmCit = assay: stepwise photobleaching of single molecules (TIRF microscopy); lysates of COS cells expressing 3xmCit-tagged constructs, in flow chambers with Cy5-microtubules, with AMPPNP; number of bleaching steps of 160–200 spots for each construct
[1] = molecular target: the molecule itself; assay: cross-linking; cytosolic extracts of rat brain and detergent extracts of murine cortical neurons, with or without DMP; SDS-PAGE, immunoblot with anti-KIF1A
[2] = molecular target: the molecule itself; assay: stepwise photobleaching of single molecules (TIRF microscopy); lysates of COS cells expressing 3xmCit-tagged constructs, in flow chambers with Cy5-microtubules, with AMPPNP; number of bleaching steps of 160–200 spots for each construct

| Molecule | stoichiometry N [1] | stoichiometry N [2] | other results |
| --- | --- | --- | --- |
| mCFP-KHC (natural protein) |  |  | average FRET efficiency (E AVE), motor-to-motor (mCit-KHC): 2.1% |
| KHC(1–891)-3xmCit (domain or fragment) |  |  | stoichiometry N (KHC(1–891)-3xmCit): 2 |
| B1 | 2 |  |  |
| B2 | 2 |  |  |
| B3 |  | 2 |  |
| B4 |  | 2 |  |
